Measurements as given in US20200262920A1 (AMPHIVENA THERAPEUTICS, published 2020).

How the values were obtained:
human CD33 [1] = target: T1, human CD33 (human, UniProt P20138 18-364); assay: flow cytometry titration, HL-60 cells
T1 construct: whole, on cells; also called huCD33; CD33 on HL-60, KG-1, KG-1a, U-937 cells
Experimental: (§1) Cells were incubated with 100 μL of serial dilutions of CD33/CD3 2×2 T-cell engagers. After washing three times with FACS buffer the cells were incubated with 0.1 mL of 10 μg/mL mouse monoclonal anti-His antibody in the same buffer for 45 min on ice. After a second washing cycle, the cells were incubated with 0.1 mL of 15 μg/mL FITC-conjugated goat anti-mouse IgG antibodies under the same conditions as before. As a control, cells were incubated with the anti-His IgG followed by the FITC-conjugated goat anti-mouse IgG antibodies without anti-CD33 2×2 T-cell engagers. The cells were then washed again and resuspended in 0.2 mL of FACS buffer containing 2 μg/mL propidium iodide (PI) in order to exclude dead cells. The fluorescence of 1×10⁴ living cells was measured using a Beckman-Coulter FC500 MPL flow cytometer using the MXP software (Beckman-Coulter, Krefeld, Germany) or a Millipore Guava EasyCyte flow cytometer using the Incyte software (Merck Millipore, Schwalbach, Germany). Mean fluorescence intensities of the cell samples were calculated using CXP software (Beckman-Coulter, Krefeld, Germany) or Incyte software (Merck Millipore, Schwalbach, Germany). After subtracting the fluorescence intensity values of the cells stained with the secondary and tertiary reagents alone the values were used for calculation of the KD values with the equation for one-site binding (hyperbola) of the GraphPad Prism (version 6.00 for Windows, GraphPad Software, La Jolla Calif. USA). […]

human CD33 [2] = target: T1, human CD33; assay: flow cytometry, HL-60 cells
human CD3 [3] = target: T2, human CD3 (human, UniProt P07766 23-207; P09693 23-182; P04234 22-171; P20963 22-164); assay: cell-based or functional assay
T2 sequence (P07766 23-207, chain 1 of 4): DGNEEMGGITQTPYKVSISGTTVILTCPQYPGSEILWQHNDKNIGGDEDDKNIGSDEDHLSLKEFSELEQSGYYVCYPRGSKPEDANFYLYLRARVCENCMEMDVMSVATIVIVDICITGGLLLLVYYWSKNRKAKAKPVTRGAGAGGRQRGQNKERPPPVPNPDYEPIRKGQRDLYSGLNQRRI
T2 sequence (P09693 23-182, chain 2 of 4): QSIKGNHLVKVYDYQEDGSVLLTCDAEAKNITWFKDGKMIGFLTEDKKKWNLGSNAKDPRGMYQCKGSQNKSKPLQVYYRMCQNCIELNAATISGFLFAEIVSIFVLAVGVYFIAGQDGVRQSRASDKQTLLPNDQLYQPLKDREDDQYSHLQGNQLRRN
T2 sequence (P04234 22-171, chain 3 of 4): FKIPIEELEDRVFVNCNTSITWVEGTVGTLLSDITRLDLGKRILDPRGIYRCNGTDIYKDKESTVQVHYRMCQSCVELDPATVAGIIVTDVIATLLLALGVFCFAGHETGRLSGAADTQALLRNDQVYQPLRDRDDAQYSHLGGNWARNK
T2 sequence (P20963 22-164, chain 4 of 4): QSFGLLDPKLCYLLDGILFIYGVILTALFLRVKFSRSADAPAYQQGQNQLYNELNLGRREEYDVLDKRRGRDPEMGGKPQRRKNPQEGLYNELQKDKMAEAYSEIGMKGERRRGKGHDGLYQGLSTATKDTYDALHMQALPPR

human CD3 [4] = target: T2, human CD3; assay: flow cytometry titration, T cells (human CD3+)
human CD33 [5] = target: T1, human CD33; assay: flow cytometry titration, KG-1 cells
Experimental: as §1

human CD33 [6] = target: T1, human CD33; assay: flow cytometry titration, U-937 cells
Experimental: as §1

human CD3 [7] = target: T2, human CD3; assay: flow cytometry, human T-cells
human CD33 [8] = target: T1, human CD33; assay: cell-based or functional assay

T1 sequence (P20138 18-364): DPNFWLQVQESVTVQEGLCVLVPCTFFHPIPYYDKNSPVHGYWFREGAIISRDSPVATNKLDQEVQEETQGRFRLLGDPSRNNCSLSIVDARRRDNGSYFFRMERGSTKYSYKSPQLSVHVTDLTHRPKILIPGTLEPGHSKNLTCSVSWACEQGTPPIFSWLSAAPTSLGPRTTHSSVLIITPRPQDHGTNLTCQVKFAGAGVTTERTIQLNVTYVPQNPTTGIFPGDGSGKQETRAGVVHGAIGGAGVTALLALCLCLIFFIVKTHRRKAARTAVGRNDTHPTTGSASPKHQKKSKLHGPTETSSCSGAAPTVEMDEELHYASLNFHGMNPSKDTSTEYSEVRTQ

Row | Binder | Kd (human CD33 [1]) [nM] | Kd (human CD33 [2]) [nM] | CD25 Induction EC50 (human CD3 [3]) [nM] | CD69 Induction EC50 (human CD3 [3]) [nM] | T cell Proliferation in PBMC EC50 (human CD3 [3]) [nM] | Kd (human CD3 [4]) [nM] | Kd (human CD33 [5]) [nM] | Kd (human CD33 [6]) [nM] | Kd (human CD3 [7]) [nM] | EC50 on HL-60 (cytotoxicity) (human CD33 [8]) [nM]
1 | CD33/CD3 2×2 T-cell engager 09 (bispecific antibody, Non-covalent homodimer; also called 2×2 T-cell engager 9) DIQMTQSPSSLSASVGDRVTITCRSSTGAVTTSNYANWVQQKPGKAPKGLIGGTNKRAPGVPSRFSGSLIGDKATLTISSLQPEDFATYYCALWYSNLWVFGQGTKVEIKGGSGGSQVQLVQSGAEVKKPGASVKVSCKASGYTFTSYDINWVRQAPGQGLEWMGWMNPNSGNTGFAQKFQGRVTMTRDTSTSTVYMELSSLRSEDTAVYYCARDRANTDFSYGMDVWGQGTLVTVSSGGSGQSVLTQPPSASGTPGQRVTISCSGSRSNIGSNTVNWYQQLPGTAPKLLIYGNNQRPSGVPDRFSGSKSGTSASLAISGLQSEDEADYYCATWDDSLIGWVFGGGTKLTVLGGSGGSEVQLVESGGGLVQPGGSLRLSCAASGFTFSTYAMNWVRQAPGKGLEWVGRIRSKYNNYATYYADSVKDRFTISRDDSKNSLYLQMNSLKTEDTAVYYCARHGNFGNSYVSWFAYWGQGTLVTVSSAAAGSHHHHHH | 0.5 | 0.5 | 0.011 | 0.007 | 0.009 | 2.4 | 0.3 | 2.2 | 2.4 | 0.0068
2 | CD33/CD3 2×2 T-cell engager 05 (bispecific antibody, Non-covalent homodimer; also called 2×2 T-cell engager 5) DIQMTQSPSSLSASVGDRVTITCRSSTGAVTTSNYANWVQQKPGKAPKGLIGGTNKRAPGVPARFSGSGSGTDFTLTISSLQPEDFATYYCALWYSNLWVFGQGTKVEIKGGSGGSQVQLVQSGAEVKKPGASVKVSCKASGYTFTSYDINWVRQAPGQGLEWMGWMNPNSGNTGFAQKFQGRVTMTRDTSTSTVYMELSSLRSEDTAVYYCARDRANTDYSFGMDVWGQGTLVTVSSGGSGGQSVLTQPPSASGTPGQRVTISCSGSRSNIGSNTVNWYQQLPGTAPKLLIYGNNQRPSGVPDRFSGSKSGTSASLAISGLQSEDEADYYCATWDDSLIGWVFGGGTKLTVLGGSGGSEVQLVESGGGLVQPGGSLRLSCAASGFTFSTYAMNWVRQAPGKGLEWVGRIRSKYNNYATYYADSVKDRFTISRDDSKNSLYLQMNSLKTEDTAVYYCARHGNFGNSYVSWFAYWGQGTLVTVSSAAAGSHHHHHH | 1 | 1 | 0.116 | 0.074 | 0.074 | 69.5 | 1.2 | 6.2 | 69.5 | 0.0027
3 | CD33/CD3 2×2 T-cell engager 06 (bispecific antibody, Non-covalent homodimer; also called 2×2 T-cell engager 6) DIQMTQSPSSLSASVGDRVTITCRSSTGAVTTSNYANWVQQKPGKAPKGLIGGTNKRAPGVPARFSGSGSGTDFTLTISSLQPEDFATYYCALWYSNLWVFGQGTKVEIKGGSGGSQVQLVQSGAEVKKPGASVKVSCKASGYTFTSYDINWVRQAPGQGLEWMGWMNPNSGNTGFAQKFQGRVTMTRDTSTSTVYMELSSLRSEDTAVYYCARDRANTDYSLGMDVWGQGTLVTVSSGGSGGQSVLTQPPSASGTPGQRVTISCSGSRSNIGSNTVNWYQQLPGTAPKLLIYGNNQRPSGVPDRFSGSKSGTSASLAISGLQSEDEADYYCATWDDSLIGWVFGGGTKLTVLGGSGGSEVQLVESGGGLVQPGGSLRLSCAASGFTFSTYAMNWVRQAPGKGLEWVGRIRSKYNNYATYYADSVKDRFTISRDDSKNSLYLQMNSLKTEDTAVYYCARHGNFGNSYVSWFAYWGQGTLVTVSSAAAGSHHHHHH | 0.4 | 0.4 | 0.039 | 0.021 | 0.048 | 86.3 | 0.5 | 1.6 | 86.3 | 0.0016

Continued by falling Kd (human CD33 [1]), values first:

Row | Kd (human CD33 [1]) [nM] | Kd (human CD33 [2]) [nM] | CD25 Induction EC50 (human CD3 [3]) [nM] | CD69 Induction EC50 (human CD3 [3]) [nM] | T cell Proliferation in PBMC EC50 (human CD3 [3]) [nM] | Kd (human CD3 [4]) [nM] | Kd (human CD33 [5]) [nM] | Kd (human CD33 [6]) [nM] | Kd (human CD3 [7]) [nM] | Binder | EC50 on HL-60 (cytotoxicity) (human CD33 [8]) [nM]
4 | 0.4 | 0.4 | 0.006 | 0.007 | 0.007 | 1.3 | 0.3 | 0.9 | 1.3 | CD33/CD3 2×2 T-cell engager 15 (bispecific antibody, Non-covalent homodimer) DIQMTQSPSSLSASVGDRVTITCRSSTGAVTTSNYANWVQQKPGKAPKALIGGTNKRAPGVPSRFSGSLIGDKATLTISSLQPEDFATYYCALWYSNLWVFGQGTKVEIKGGSGGSQVQLVQSGAEVKKPGASVKVSCKASGYTFTSYDINWVRQAPGQGLEWMGWMNPNSGNTGFAQKFQGRVTMTRDTSTSTVYMELSSLRSEDTAVYYCARDRANTDYSFGMDVWGQGTLVTVSSGGSGQSVLTQPPSASGTPGQRVTISCSGSRSNIGSNTVNWYQQLPGTAPKLLIYGNNQRPSGVPDRFSGSKSGTSASLAISGLQSEDEADYYCATWDDSLIGWVFGGGTKLTVLGGSGGSEVQLVESGGGLVQPGGSLRLSCAASGFTFSTYAMNWVRQAPGKGLEWVGRIRSKYNNYATYYADSVKDRFTISRDDSKNSLYLQMNSLKTEDTAVYYCARHGNFGNSYVSYFAYWGQGTLVTVSSAAAGSHHHHHH | 0.0018
5 | 0.3 | 0.3 | 0.011 | 0.005 | 0.006 | 2.6 | 0.5 | 0.6 | 2.6 | CD33/CD3 2×2 T-cell engager 11 (bispecific antibody, Non-covalent homodimer) DIQMTQSPSSLSASVGDRVTITCRSSTGAVTTSNYANWVQQKPGKAPKGLIGGTNKRAPGVPSRFSGSLIGDKATLTISSLQPEDFATYYCALWYSNLWVFGQGTKVEIKGGSGGSQVQLVQSGAEVKKPGASVKVSCKASGYTFTSYDINWVRQAPGQGLEWMGWMNPNSGNTGFAQKFQGRVTMTRDTSTSTVYMELSSLRSEDTAVYYCARDRANTDYSLGMDVWGQGTLVTVSSGGSGQSVLTQPPSASGTPGQRVTISCSGSRSNIGSNTVNWYQQLPGTAPKLLIYGNNQRPSGVPDRFSGSKSGTSASLAISGLQSEDEADYYCATWDDSLIGWVFGGGTKLTVLGGSGGSEVQLVESGGGLVQPGGSLRLSCAASGFTFSTYAMNWVRQAPGKGLEWVGRIRSKYNNYATYYADSVKDRFTISRDDSKNSLYLQMNSLKTEDTAVYYCARHGNFGNSYVSWFAYWGQGTLVTVSSAAAGSHHHHHH | 0.0059
6 | 0.2 | 0.2 | 0.03 | 0.022 | 0.023 | 55.7 | 0.3 | 0.5 | 55.7 | CD33/CD3 2×2 T-cell engager 13 (bispecific antibody, Non-covalent homodimer) DIQMTQSPSSLSASVGDRVTITCRSSTGAVTTSNYANWVQQKPGKAPKGLIGGTNKRAPGVPSRFSGSLIGTDFTLTISSLQPEDFATYYCALWYSNLWVFGQGTKVEIKGGSGGSQVQLVQSGAEVKKPGASVKVSCKASGYTFTSYDINWVRQAPGQGLEWMGWMNPNSGNTGFAQKFQGRVTMTRDTSTSTVYMELSSLRSEDTAVYYCARDRAVTDYYYGMDVWGQGTLVTVSSGGSGQSVLTQPPSASGTPGQRVTISCSGSRSNIGSNTVNWYQQLPGTAPKLLIYGNNQRPSGVPDRFSGSKSGTSASLAISGLQSEDEADYYCATWDDSLIGWVFGGGTKLTVLGGSGGSEVQLVESGGGLVQPGGSLRLSCAASGFTFSTYAMNWVRQAPGKGLEWVGRIRSKYNNYATYYADSVKDRFTISRDDSKNSLYLQMNSLKTEDTAVYYCARHGNFGNSYVSWFAYWGQGTLVTVSSAAAGSHHHHHH | 0.0011
